# Publication PMC3138243 (The Journal of Biological Chemistry, 2011)
# Like-named read-outs stand apart in the source and are kept apart here.
# Legend:
# [1] = biological target: T1, CLOCK (co-expressed with BMAL1);BMAL1 (Mus musculus;Mus musculus, UniProt O08785;Q9WTL8 1-855;1-632, |); experiment: EMSA
# [2] = biological target: T2, CLOCK (co-expressed with BMAL1);BMAL1;CRY1 (Mus musculus;Mus musculus;Mus musculus, UniProt O08785;Q9WTL8;P97784 1-855;1-632;1-606, ||); experiment: EMSA supershift
# PER2 = PER2 (mouse, UniProt O54943 1-1257); experiment: co-IP
# [3] = biological target: T2, CLOCK (co-expressed with …); experiment: EMSA supershift; remark: listed apart in the source
# CRY1 = biological target: T3, CRY1 (Mus musculus, UniProt P97784 1-606); experiment: EMSA
# T3 sequence: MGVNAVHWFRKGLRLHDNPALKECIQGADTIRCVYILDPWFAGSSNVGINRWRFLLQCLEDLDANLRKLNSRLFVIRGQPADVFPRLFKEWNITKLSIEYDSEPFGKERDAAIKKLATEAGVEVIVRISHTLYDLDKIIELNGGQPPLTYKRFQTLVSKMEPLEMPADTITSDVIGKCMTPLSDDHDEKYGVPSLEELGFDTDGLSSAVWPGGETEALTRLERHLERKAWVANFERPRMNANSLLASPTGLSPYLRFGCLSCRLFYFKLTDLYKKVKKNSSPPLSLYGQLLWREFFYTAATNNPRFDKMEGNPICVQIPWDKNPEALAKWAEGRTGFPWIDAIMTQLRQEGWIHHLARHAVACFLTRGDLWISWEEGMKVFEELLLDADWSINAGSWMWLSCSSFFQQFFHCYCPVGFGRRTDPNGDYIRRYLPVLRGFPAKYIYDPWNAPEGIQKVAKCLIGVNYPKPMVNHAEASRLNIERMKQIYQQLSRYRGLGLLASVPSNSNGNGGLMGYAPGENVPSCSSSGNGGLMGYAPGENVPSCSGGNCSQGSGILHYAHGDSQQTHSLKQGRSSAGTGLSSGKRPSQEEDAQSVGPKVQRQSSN
# [4] = biological target: T1, CLOCK (co-expressed with BMAL1);BMAL1; experiment: EMSA; remark: listed apart in the source
# [5] = biological target: CLOCK (co-expressed with BMAL1);BMAL1;hCRY1 (Mus musculus;Mus musculus;Homo sapiens, UniProt O08785;Q9WTL8;Q16526 1-855;1-632;1-586, ||); experiment: EMSA
# BMAL1 = BMAL1 (Mus musculus, UniProt Q9WTL8 1-632); experiment: EMSA
# [6] = biological target: CLOCK (co-expressed with BMAL1);BMAL1;CRY2 (Mus musculus;Mus musculus;Mus musculus, UniProt O08785;Q9WTL8;Q9R194 1-855;1-632;1-592, ||); experiment: EMSA supershift
# CLOCK:BMAL1 heterodimer = CLOCK:BMAL1 heterodimer (mouse, UniProt O08785;Q9WTL8); experiment: native gel or EMSA
# Sequence of CLOCK:BMAL1 heterodimer (Q9WTL8 whole entry, one chain of several): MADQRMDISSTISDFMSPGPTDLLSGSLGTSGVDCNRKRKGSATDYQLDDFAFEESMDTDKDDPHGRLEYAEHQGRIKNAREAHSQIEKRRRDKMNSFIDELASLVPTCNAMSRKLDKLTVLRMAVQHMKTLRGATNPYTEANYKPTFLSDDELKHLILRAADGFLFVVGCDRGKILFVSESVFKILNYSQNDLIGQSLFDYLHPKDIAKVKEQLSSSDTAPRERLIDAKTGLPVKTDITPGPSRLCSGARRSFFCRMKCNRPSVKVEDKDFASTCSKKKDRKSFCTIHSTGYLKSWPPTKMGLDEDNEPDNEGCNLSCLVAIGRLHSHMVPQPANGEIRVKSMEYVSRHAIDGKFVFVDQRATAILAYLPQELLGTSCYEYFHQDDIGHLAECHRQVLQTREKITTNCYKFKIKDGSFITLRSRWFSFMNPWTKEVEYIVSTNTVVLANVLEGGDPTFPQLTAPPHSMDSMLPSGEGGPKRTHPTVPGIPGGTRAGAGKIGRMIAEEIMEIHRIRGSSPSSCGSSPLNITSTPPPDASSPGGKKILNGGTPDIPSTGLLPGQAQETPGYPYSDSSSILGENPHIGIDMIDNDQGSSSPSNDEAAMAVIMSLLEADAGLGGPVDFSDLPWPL
# T2 sequence (Q9WTL8 whole entry, one chain of several): as above
# T1 sequence (Q9WTL8 whole entry, one chain of several): as above
# Sequence of CLOCK (co-expressed with BMAL1);BMAL1;hCRY1 (Q9WTL8 whole entry, one chain of several): as above
# Sequence of BMAL1 (Q9WTL8 whole entry): as the sequence (Q9WTL8 whole entry, one chain of several) above
# Sequence of CLOCK (co-expressed with BMAL1);BMAL1;CRY2 (Q9WTL8 whole entry, one chain of several): as above
# Sequence of PER2 (O54943 whole entry): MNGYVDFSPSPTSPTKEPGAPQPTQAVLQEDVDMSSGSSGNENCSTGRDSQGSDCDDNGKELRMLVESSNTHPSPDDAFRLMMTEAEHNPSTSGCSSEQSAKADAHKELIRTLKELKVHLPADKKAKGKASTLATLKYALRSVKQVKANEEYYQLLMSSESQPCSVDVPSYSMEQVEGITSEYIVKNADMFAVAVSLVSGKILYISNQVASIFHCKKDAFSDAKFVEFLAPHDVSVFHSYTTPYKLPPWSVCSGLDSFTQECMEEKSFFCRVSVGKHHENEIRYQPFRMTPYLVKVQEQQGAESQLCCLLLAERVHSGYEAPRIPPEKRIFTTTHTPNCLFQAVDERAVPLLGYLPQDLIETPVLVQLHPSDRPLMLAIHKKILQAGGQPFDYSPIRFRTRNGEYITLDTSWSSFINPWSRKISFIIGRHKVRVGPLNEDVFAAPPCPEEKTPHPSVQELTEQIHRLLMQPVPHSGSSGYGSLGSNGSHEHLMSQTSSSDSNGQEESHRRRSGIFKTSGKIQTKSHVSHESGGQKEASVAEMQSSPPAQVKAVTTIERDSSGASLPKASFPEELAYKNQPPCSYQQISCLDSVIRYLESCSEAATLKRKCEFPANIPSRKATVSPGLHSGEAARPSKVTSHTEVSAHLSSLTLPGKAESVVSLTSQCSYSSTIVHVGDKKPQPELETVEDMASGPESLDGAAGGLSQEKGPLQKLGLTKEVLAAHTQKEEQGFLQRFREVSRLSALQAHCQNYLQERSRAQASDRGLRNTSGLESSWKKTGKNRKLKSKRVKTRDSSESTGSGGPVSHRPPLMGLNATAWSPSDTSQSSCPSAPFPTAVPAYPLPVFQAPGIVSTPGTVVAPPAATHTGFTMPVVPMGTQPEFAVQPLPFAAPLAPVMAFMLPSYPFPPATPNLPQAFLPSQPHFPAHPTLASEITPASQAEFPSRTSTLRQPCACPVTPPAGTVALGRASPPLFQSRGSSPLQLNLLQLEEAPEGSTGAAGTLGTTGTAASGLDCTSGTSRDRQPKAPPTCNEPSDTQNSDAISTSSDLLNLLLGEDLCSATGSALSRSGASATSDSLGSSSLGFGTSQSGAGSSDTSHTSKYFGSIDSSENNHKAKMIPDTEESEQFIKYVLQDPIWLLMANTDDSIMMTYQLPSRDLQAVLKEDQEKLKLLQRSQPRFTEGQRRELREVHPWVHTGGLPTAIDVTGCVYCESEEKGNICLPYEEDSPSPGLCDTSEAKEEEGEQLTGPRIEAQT
binder,measurement,setting,value
P2GS 60-bp duplex (dsDNA) DNA 1: CATCACCCACTCACCCCTTAACGACACGTGGGCCCTCAATTGCCCTTCTCTCAGGATCTG DNA 2: CAGATCCTGAGAGAAGGGCAATTGAGGGCCCACGTGTCGTTAAGGGGTGAGTGGGTGATG,binding result,[1],binds
same,binding result,[2],binds
CLOCK (natural protein) MVFTVSCSKMSSIVDRDDSSIFDGLVEEDDKDKAKRVSRNKSEKKRRDQFNVLIKELGSMLPGNARKMDKSTVLQKSIDFLRKHKETTAQSDASEIRQDWKPTFLSNEEFTQLMLEALDGFFLAIMTDGSIIYVSESVTSLLEHLPSDLVDQSIFNFIPEGEHSEVYKILSTHLLESDSLTPEYLKSKNQLEFCCHMLRGTIDPKEPSTYEYVRFIGNFKSLTSVSTSTHNGFEGTIQRTHRPSYEDRVCFVATVRLATPQFIKEMCTVEEPNEEFTSRHSLEWKFLFLDHRAPPIIGYLPFEVLGTSGYDYYHVDDLENLAKCHEHLMQYGKGKSCYYRFLTKGQQWIWLQTHYYITYHQWNSRPEFIVCTHTVVSYAEVRAERRRELGIEESLPETAADKSQDSGSDNRINTVSLKEALERFDHSPTPSASSRSSRKSSHTAVSDPSSTPTKIPTDTSTPPRQHLPAHEKMTQRRSSFSSQSINSQSVGPSLTQPAMSQAANLPIPQGMSQFQFSAQLGAMQHLKDQLEQRTRMIEANIHRQQEELRKIQEQLQMVHGQGLQMFLQQSNPGLNFGSVQLSSGNSNIQQLTPVNMQGQVVPANQVQSGHISTGQHMIQQQTLQSTSTQQSQQSVMSGHSQQTSLPSQTPSTLTAPLYNTMVISQPAAGSMVQIPSSMPQNSTQSATVTTFTQDRQIRFSQGQQLVTKLVTAPVACGAVMVPSTMLMGQVVTAYPTFATQQQQAQTLSVTQQQQQQQQQPPQQQQQQQQSSQEQQLPSVQQPAQAQLGQPPQQFLQTSRLLHGNPSTQLILSAAFPLQQSTFPPSHHQQHQPQQQQQLPRHRTDSLTDPSKVQPQ,binding result,PER2,binds
M34 (dsDNA) DNA 1: GGGACACGTGACCC DNA 2: GGGTCACGTGTCCC,binding result,[3],binds
same,binding result,CRY1,no binding
same,binding result,[4],binds
same,binding result,[5],binds
same,binding result,BMAL1,binds
same,binding result,[6],binds
CRY2 (natural protein) MAAAAVVAATVPAQSMGADGASSVHWFRKGLRLHDNPALLAAVRGARCVRCVYILDPWFAASSSVGINRWRFLLQSLEDLDTSLRKLNSRLFVVRGQPADVFPRLFKEWGVTRLTFEYDSEPFGKERDAAIMKMAKEAGVEVVTENSHTLYDLDRIIELNGQKPPLTYKRFQALISRMELPKKPAVAVSSQQMESCRAEIQENHDDTYGVPSLEELGFPTEGLGPAVWQGGETEALARLDKHLERKAWVANYERPRMNANSLLASPTGLSPYLRFGCLSCRLFYYRLWDLYKKVKRNSTPPLSLFGQLLWREFFYTAATNNPRFDRMEGNPICIQIPWDRNPEALAKWAEGKTGFPWIDAIMTQLRQEGWIHHLARHAVACFLTRGDLWVSWESGVRVFDELLLDADFSVNAGSWMWLSCSAFFQQFFHCYCPVGFGRRTDPSGDYIRRYLPKLKGFPSRYIYEPWNAPESVQKAAKCIIGVDYPRPIVNHAETSRLNIERMKQIYQQLSRYRGLCLLASVPSCVEDLSHPVAEPGSSQAGSISNTGPRALSSGPASPKRKLEAAEEPPGEELTKRARVTEMPTQEPASKDS,binding result,CLOCK:BMAL1 heterodimer,binds
human CRY1 (natural protein) MGVNAVHWFRKGLRLHDNPALKECIQGADTIRCVYILDPWFAGSSNVGINRWRFLLQCLEDLDANLRKLNSRLFVIRGQPADVFPRLFKEWNITKLSIEYDSEPFGKERDAAIKKLATEAGVEVIVRISHTLYDLDKIIELNGGQPPLTYKRFQTLISKMEPLEIPVETITSEVIEKCTTPLSDDHDEKYGVPSLEELGFDTDGLSSAVWPGGETEALTRLERHLERKAWVANFERPRMNANSLLASPTGLSPYLRFGCLSCRLFYFKLTDLYKKVKKNSSPPLSLYGQLLWREFFYTAATNNPRFDKMEGNPICVQIPWDKNPEALAKWAEGRTGFPWIDAIMTQLRQEGWIHHLARHAVACFLTRGDLWISWEEGMKVFEELLLDADWSINAGSWMWLSCSSFFQQFFHCYCPVGFGRRTDPNGDYIRRYLPVLRGFPAKYIYDPWNAPEGIQKVAKCLIGVNYPKPMVNHAEASRLNIERMKQIYQQLSRYRGLGLLASVPSNPNGNGGFMGYSAENIPGCSSSGSCSQGSGILHYAHGDSQQTHLLKQGRSSMGTGLSGGKRPSQEEDTQSIGPKVQRQSTN,binding result,CLOCK:BMAL1 heterodimer,binds
CRY1 (natural protein) MGVNAVHWFRKGLRLHDNPALKECIQGADTIRCVYILDPWFAGSSNVGINRWRFLLQCLEDLDANLRKLNSRLFVIRGQPADVFPRLFKEWNITKLSIEYDSEPFGKERDAAIKKLATEAGVEVIVRISHTLYDLDKIIELNGGQPPLTYKRFQTLVSKMEPLEMPADTITSDVIGKCMTPLSDDHDEKYGVPSLEELGFDTDGLSSAVWPGGETEALTRLERHLERKAWVANFERPRMNANSLLASPTGLSPYLRFGCLSCRLFYFKLTDLYKKVKKNSSPPLSLYGQLLWREFFYTAATNNPRFDKMEGNPICVQIPWDKNPEALAKWAEGRTGFPWIDAIMTQLRQEGWIHHLARHAVACFLTRGDLWISWEEGMKVFEELLLDADWSINAGSWMWLSCSSFFQQFFHCYCPVGFGRRTDPNGDYIRRYLPVLRGFPAKYIYDPWNAPEGIQKVAKCLIGVNYPKPMVNHAEASRLNIERMKQIYQQLSRYRGLGLLASVPSNSNGNGGLMGYAPGENVPSCSSSGNGGLMGYAPGENVPSCSGGNCSQGSGILHYAHGDSQQTHSLKQGRSSAGTGLSSGKRPSQEEDAQSVGPKVQRQSSN,binding result,CLOCK:BMAL1 heterodimer,binds
Myc-CRY1 (natural protein) MGVNAVHWFRKGLRLHDNPALKECIQGADTIRCVYILDPWFAGSSNVGINRWRFLLQCLEDLDANLRKLNSRLFVIRGQPADVFPRLFKEWNITKLSIEYDSEPFGKERDAAIKKLATEAGVEVIVRISHTLYDLDKIIELNGGQPPLTYKRFQTLVSKMEPLEMPADTITSDVIGKCMTPLSDDHDEKYGVPSLEELGFDTDGLSSAVWPGGETEALTRLERHLERKAWVANFERPRMNANSLLASPTGLSPYLRFGCLSCRLFYFKLTDLYKKVKKNSSPPLSLYGQLLWREFFYTAATNNPRFDKMEGNPICVQIPWDKNPEALAKWAEGRTGFPWIDAIMTQLRQEGWIHHLARHAVACFLTRGDLWISWEEGMKVFEELLLDADWSINAGSWMWLSCSSFFQQFFHCYCPVGFGRRTDPNGDYIRRYLPVLRGFPAKYIYDPWNAPEGIQKVAKCLIGVNYPKPMVNHAEASRLNIERMKQIYQQLSRYRGLGLLASVPSNSNGNGGLMGYAPGENVPSCSSSGNGGLMGYAPGENVPSCSGGNCSQGSGILHYAHGDSQQTHSLKQGRSSAGTGLSSGKRPSQEEDAQSVGPKVQRQSSN,binding result,CLOCK:BMAL1 heterodimer,binds
